Laboratory results reported in patent US20170198014A1, “POLYPEPTIDES AND THEIR USE FOR TREATING INFLUENZA” ([…] ITS CENTER FOR COMMERCIALIZATION, priority 2014, published 2017).

Legend:
[1] = molecular target: H1 (A/NewCaledonia/20/1999) (Influenza A virus, UniProt Q6WG00); conditions: read-out: affinity constant via yeast surface display
[2] = molecular target: H1 (A/Solomonislands/3/2006) (Influenza A virus, UniProt A7UPX0); conditions: read-out: affinity constant via yeast surface display
H3 (A/Hong Kong/1/1968) = H3 (A/Hong Kong/1/1968) (Influenza A virus, UniProt Q91MA7); conditions: read-out: affinity constant via yeast surface display
H2 (A/Adachi/2/1957) = H2 (A/Adachi/2/1957) (Influenza A virus, UniProt B5UA22); conditions: read-out: affinity constant via yeast surface display
H3N2 A/Victoria/361/2011 [3] = format: binding, Influenza A
[4] = molecular target: HA of H3N2 A/Hong Kong/1/1968 (Influenza A virus, UniProt Q91MA7); conditions: read-out: Kd (binding constant)
H3N2 A/Victoria/361/2011 [5] = format: binding, Influenza A; remark: listed apart in the source
H1, H2 and H3 = format: binding, Influenza A
H2N2 A/Adachi/2/1957 = H2N2 A/Adachi/2/1957 (Influenza A virus, UniProt B5UA22); conditions: read-out: Kd (binding constant)
[6] = molecular target: H1N1 A/New Caledonia/20/1999 (Influenza A virus, UniProt Q6WG00); conditions: read-out: Kd (binding constant)

H1 (A/Solomonislands/3/2006), sequence (A7UPX0 1-565): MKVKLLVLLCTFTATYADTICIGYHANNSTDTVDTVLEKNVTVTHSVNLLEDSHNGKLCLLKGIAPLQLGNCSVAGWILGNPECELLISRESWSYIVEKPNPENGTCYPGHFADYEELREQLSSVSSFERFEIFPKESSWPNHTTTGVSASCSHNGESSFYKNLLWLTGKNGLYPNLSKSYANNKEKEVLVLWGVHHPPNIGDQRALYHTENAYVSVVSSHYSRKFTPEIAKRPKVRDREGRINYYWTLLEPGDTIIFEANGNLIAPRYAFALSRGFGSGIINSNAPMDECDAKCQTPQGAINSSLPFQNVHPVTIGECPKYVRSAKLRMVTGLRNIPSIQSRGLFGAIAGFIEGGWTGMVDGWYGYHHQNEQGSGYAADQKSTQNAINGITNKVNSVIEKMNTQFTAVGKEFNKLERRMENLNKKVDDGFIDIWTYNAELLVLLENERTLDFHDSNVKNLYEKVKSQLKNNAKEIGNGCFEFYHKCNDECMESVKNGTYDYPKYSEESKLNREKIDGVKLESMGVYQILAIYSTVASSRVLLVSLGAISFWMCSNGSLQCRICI

In the case of “GIVNVPN(P/C)NTTKYQQLARSAIAVYNYHQNAHLEFVENLN(V/C)KEQIAGKTMYYITLAATDDAGKKKIYKAKVGVVESAGWEGVEEFKLV [52solo2]”, the Kd [1] is reported as 9.1 nM and the Kd [2] is reported as 1.7 nM.
“GIVNVPN(P/C)NTTKYQQLARSAIAIYNNHQNAHLEFVENLN(V/C)KEQVSYGAMYYITLAATDDAGKKKIYKAKVGVVESAGWVGVEEFKLV [52alt1-3]” gave a Kd (H3 (A/Hong Kong/1/1968)) of 3 nM and a Kd (H2 (A/Adachi/2/1957)) of 8.5 nM.
Substance “GIVNVPN(P/C)NTTKYQQLARRAIAIYNNNQNAHLEFVENLN(V/C)KEQTGLGIMYYITLAATDDAGKKKIYKAKIAVVESAGWVAVSEFKLV [52Sing2]” has a Kd [1] of 44.9 nM and a Kd [2] of 17.2 nM.
For “GIVNVPN(P/C)NTTKYQQLARSAIAIYNYHQNAHLEFVENLN(V/C)KEQLGEGDMYYITLAATDDAGKKKIYKAKIGVVESAGWTGVEEFKLV [52NC-2]”, the “binding by yeast display titrations” value (H3N2 A/Victoria/361/2011 [3]) was “could not be detected”, the Kd (H3 (A/Hong Kong/1/1968)) was 3.9 nM and the Kd [4] was 180 nM. The Kd (H2 (A/Adachi/2/1957)) was 9.6 nM, the “Kd (binding constant)” value (H3N2 A/Victoria/361/2011 [5]) was “could not be detected” and the “binding to HA subtypes” value (H1, H2 and H3) was “binding to all three subtypes H1, H2 and H3”. The Kd [1] was 27.2 nM, the Kd [2] was 4.4 nM and the Kd (H2N2 A/Adachi/2/1957) was 289 nM. It also gave a Kd [6] of 534 nM.
“GIVNVPN(P/C)NTTKYQQLARSAIAIYNYHQNAHLEFVENLN(V/C)KEQVGGMNMYYITLAATDDAGKKKIYKAKVGVVESAGWKGVEEFKLV [52solo1]” was tested, and the Kd (H3 (A/Hong Kong/1/1968)) was 35.7 nM, the Kd (H2 (A/Adachi/2/1957)) was greater than 350 nM and the Kd [1] was 20.7 nM. It also gave a Kd [2] of 1.8 nM.
